# According to patent publication US20040253677:
# System: HA-GβL
substance,measurement,value
myc-mTOR (full-length),in vitro mTOR kinase activity (autophosphorylation and activity towards GST-S6K1),GβL-mediated stimulation of the mTOR kinase activity correlates with the amount of GβL bound to mTOR and is independent of raptor
